In patent publication US20250250335A1 (SHENGHE CHINA BIOPHARMACEUTICAL, published 2025):
Like-named read-outs stand apart in the source and are kept apart here.

What was measured:
[1] = molecular target: T1, CEACAM6 on the surface of the tumor cells (HPAFII cells) (UniProt P40199 35-320); assay: flow cytometry on HPAFII cells (Mean-FITC); the cells carry CEACAM5 and CEACAM6, signal not divided between the two
T1 construct: whole, on cells
T1 sequence (looked up): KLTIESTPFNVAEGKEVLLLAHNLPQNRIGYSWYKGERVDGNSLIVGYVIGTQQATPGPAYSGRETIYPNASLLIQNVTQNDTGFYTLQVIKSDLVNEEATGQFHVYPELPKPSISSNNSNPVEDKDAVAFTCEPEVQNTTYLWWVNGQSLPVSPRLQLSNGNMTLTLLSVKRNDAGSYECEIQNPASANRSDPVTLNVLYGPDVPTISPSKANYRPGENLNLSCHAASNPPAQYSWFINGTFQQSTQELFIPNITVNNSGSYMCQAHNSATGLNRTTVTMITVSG
Description: (§1) The antibody to be tested was taken as the initial concentration of 200 nM and diluted 5-fold with 6 gradients. The HPAFII cells (From USTC […] FOR ADVANCED STUDIES) in the incubator were taken out, and the cell suspension was transferred to a 15 mL centrifuge tube, centrifuged, and counted by resuspension in PBS. A blank control group (Blank), a negative control group (NC), an experimental group, a positive control group and the irrelevant antibody group were kept. […] The cell suspension was spread in a 96-well plate according to about 3×10⁵ cells/well. Centrifugation (1000 rpm, 5 min) was performed, followed by washing with PBS, re-centrifugation, and repeated twice to remove media residues. The supernatant was discarded, 100 μL of primary antibody solution and irrelevant antibody solution were added to the experimental group and irrelevant antibody group, respectively, and the cells were resuspended and incubated at room temperature for 1 h. The blank group, and the negative control group were incubated with an equal amount of PBS.
(§2) After 1 h, PBS was added to wash twice. After the supernatant was discarded, 100 μL of fluorescent secondary antibody dilution (Mouse-derived secondary antibody from Abcam ab6785) was added to each sample group, except for the blank group which was added with 100 μL of PBS. After incubation at room temperature and protected from light for 0.5 h, centrifugation was performed and PBS added to wash the samples twice. After the supernatant was discarded, 120 μL of PBS was added to resuspend and sequentially flow cytometry was performed to detect the mean fluorescence intensity. The concentration of the antibody was logarithmically taken as the horizontal coordinate, and the Sigmoidaldose-response (VariableSlope) method (GraphPadPrism Software, GraphPadSoftware, San Diego, California) was chosen to perform a nonlinear regression to obtain the binding activity curves of the antibody on HPAFII cells.

mouse CEACAM5 = molecular target: T2, mouse CEACAM5 (mouse, UniProt Q3UKK2 35-947, limits assumed); assay: ELISA on coated protein, OD450
T2 sequence (looked up): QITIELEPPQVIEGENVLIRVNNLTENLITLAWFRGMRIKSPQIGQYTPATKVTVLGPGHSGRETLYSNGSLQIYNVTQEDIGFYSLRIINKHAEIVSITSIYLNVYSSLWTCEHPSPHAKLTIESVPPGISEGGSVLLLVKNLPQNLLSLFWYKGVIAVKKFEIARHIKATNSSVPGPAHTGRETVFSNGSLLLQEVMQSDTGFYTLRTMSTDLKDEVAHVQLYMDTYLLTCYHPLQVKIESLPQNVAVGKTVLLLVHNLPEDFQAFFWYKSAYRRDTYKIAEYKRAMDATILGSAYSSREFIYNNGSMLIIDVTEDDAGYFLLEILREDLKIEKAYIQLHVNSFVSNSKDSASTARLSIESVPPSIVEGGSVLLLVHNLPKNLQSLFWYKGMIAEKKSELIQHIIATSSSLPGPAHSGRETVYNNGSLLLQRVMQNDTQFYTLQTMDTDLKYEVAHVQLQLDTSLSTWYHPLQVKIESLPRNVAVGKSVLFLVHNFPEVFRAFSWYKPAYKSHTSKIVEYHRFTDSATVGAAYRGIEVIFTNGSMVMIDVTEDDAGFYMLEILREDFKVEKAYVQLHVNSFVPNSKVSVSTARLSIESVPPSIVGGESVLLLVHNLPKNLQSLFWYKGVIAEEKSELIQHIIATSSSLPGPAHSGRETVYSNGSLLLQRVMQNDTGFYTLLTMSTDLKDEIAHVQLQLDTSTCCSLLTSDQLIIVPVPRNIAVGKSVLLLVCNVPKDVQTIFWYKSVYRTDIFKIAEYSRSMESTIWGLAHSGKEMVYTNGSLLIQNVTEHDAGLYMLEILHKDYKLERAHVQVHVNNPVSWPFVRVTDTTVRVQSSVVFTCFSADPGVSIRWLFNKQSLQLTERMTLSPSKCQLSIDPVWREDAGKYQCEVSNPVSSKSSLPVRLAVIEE
Outline: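 Plates coated overnight at 4 °C with mouse CEACAM5 protein, blocked with 2% BSA in PBS, then incubated with test antibody 1 h at 37 °C. Binding detected with HRP-conjugated goat anti-mouse IgG-Fc and TMB, absorbance read at 450 nm.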

[2] = molecular target: T3, human CEACAM5-his (ACRO CE5-H5226) (human, UniProt P06731 35-685); assay: ELISA on coated human CEACAM5, OD450
T3 construct: Bought protein; not shown: His tag
T3 sequence (looked up): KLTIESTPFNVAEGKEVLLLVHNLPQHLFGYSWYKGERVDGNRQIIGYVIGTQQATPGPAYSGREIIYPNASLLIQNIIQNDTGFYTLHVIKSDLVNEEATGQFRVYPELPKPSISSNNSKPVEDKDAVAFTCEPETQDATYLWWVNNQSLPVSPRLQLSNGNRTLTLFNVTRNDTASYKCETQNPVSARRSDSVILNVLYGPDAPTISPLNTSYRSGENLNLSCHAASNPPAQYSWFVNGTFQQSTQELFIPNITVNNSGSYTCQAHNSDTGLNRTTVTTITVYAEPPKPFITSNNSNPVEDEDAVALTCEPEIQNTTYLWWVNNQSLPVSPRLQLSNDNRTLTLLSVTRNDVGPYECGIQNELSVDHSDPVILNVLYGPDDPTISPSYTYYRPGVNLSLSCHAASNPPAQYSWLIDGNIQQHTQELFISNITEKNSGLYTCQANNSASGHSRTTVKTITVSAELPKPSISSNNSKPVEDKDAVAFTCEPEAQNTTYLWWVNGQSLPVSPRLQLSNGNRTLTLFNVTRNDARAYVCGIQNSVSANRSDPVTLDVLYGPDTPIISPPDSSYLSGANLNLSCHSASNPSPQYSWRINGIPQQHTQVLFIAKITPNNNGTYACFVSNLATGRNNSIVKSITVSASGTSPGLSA
Description: (§3) The binding activity of the antibodies to human CEACAM5, human CEACAM6, and human CEACAM6 (AB) proteins was detected by ELISA. The plate coated with proteins was incubated at 4° C. overnight, and the 96-well ELISA plate blocked with 2% PBS-BSA was added with the antibody to be detected and incubated at 37° C. for 1 h. After washing 3 times with PBS containing 0.05% Tween, the absorbance value of each well was read at wavelength 450 nm with the gradient-diluted mouse-derived candidate antibody as the primary antibody and anti-mouse-IgG-FC-HRP as the secondary antibody, and the absorbance value of each well was read at wavelength 450 nm after the TMB color development.

[3] = molecular target: T4, human CEACAM6-his (ACRO CE6-H5223) (human, UniProt P40199 35-320); assay: ELISA on coated human CEACAM6, OD450
T4 construct: Bought protein; not shown: His tag
T4 sequence (looked up): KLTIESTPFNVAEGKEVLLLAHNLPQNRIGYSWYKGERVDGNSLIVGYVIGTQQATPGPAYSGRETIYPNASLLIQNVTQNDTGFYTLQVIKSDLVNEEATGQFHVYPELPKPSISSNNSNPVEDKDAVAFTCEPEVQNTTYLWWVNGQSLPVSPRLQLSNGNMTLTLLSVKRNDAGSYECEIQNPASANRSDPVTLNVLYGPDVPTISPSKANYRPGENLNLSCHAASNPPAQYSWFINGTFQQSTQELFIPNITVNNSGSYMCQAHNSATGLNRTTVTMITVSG
Description: as §3

[4] = molecular target: T5, CEACAM5 on the surface of the tumor cells (HPAFII cells) (UniProt P06731 35-685); assay: flow cytometry on HPAFII cells (Mean-FITC); the cells carry CEACAM5 and CEACAM6, signal not divided between the two
T5 construct: whole, on cells
T5 sequence (looked up): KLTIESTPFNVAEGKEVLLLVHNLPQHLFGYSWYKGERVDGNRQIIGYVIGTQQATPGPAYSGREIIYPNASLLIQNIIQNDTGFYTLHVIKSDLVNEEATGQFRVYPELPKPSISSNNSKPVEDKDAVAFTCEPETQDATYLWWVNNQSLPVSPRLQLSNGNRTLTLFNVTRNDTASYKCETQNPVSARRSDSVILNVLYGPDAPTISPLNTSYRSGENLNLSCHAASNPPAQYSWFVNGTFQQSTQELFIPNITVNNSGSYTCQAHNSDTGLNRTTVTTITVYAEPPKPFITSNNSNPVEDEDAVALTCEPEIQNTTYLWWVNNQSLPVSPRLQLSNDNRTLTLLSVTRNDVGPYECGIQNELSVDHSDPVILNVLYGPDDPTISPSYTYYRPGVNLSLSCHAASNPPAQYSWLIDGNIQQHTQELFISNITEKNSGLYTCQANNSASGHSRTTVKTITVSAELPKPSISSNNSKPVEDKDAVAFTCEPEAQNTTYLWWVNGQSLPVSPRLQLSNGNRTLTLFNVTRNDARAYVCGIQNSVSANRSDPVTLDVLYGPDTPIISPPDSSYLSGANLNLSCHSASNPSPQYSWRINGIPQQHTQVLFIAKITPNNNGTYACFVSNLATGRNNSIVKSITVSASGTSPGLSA
Description: as §1, §2

[5] = molecular target: T5, CEACAM5 on the surface of the tumor …; assay: as above; remark: listed apart in the source
Description: as §1, §2

[6] = molecular target: T5, CEACAM5 on the surface of the tumor …; assay: as above; remark: listed apart in the source
Description: as §1, §2

[7] = molecular target: T3, human CEACAM5-his (ACRO CE5-H5226); assay: SPR (Biacore), antibody captured on CM5 chip, antigen as analyte, 1:1 model
Description: The CM5 sensor chip was activated at a flow rate of 10 μL/min for 420 seconds. The channel was then injected with 30 μg/mL of anti-rat Fc IgG in 10 mM NaAc (pH 4.5) at a flow rate of 10 μL/min. The chip was inactivated with 1 M ethanolamine-hydrochloric acid (GE) for 420 seconds at a flow rate of 10 μL/min.
Candidate antibodies in running buffer 1×HBS-EP+ (10 mM HEPES, 150 mM NaCl, 3 mM EDTA, 0.05% Tween 20, pH 7.4) were captured onto Fc2 with anti-rat Fc IgG at a flow rate of 10 μL/min. The 10 nM human CEACAM5-his protein or CEACAM-6-his or CEACAM6 (AB)-his protein and running buffer were sequentially injected into Fc1-Fc2 at a flow rate of […], bound for 180 seconds, and then dissociated for 3600 seconds. 10 mM glycine (pH 1.5) was injected as regeneration buffer after each dissociation.
Result plots for the reference channel Fc1 and the buffer channel were subtracted from the test result plots. The experimental data fit the 1:1 binding model. The molecular weight of 110 KDa was used to calculate the molar concentration of CEACAM5 protein, 55 KDa for human CEACAM6-his, and 55 KDa for human CEACAM6 (AB)-his.

[8] = molecular target: T3, human CEACAM5-his (ACRO CE5-H5226); assay: ELISA on coated human CEACAM5, OD450; remark: listed apart in the source
Outline: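 Plates coated overnight at 4 °C with antigen and blocked with 2% BSA in PBS received gradient-diluted mouse candidate antibodies for 1 h at 37 °C. Binding was detected with anti-mouse IgG Fc-HRP and TMB, read as OD450.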

[9] = molecular target: T5, CEACAM5 on the surface of the tumor …; assay: flow cytometry on HPAFII cells (Mean-FITC); the cells carry CEACAM5 and CEACAM6, signal not divided between the two; remark: listed apart in the source
Description: as §1
After 1 h, PBS was added to wash twice. […] After the supernatant was discarded, 120 μL of PBS was added to resuspend and sequentially flow cytometry was performed to detect the mean fluorescence intensity. […]

B1: Antibody 1 (antibody, V domains shown)
VH: QVQLKQSGAELVRPGASVKLSCKTSGYIFTSYWIHWVKQRSGQGLEWIARIYPGTGSTYYNEKFKGKATLTADKSSSTAYMQLSSLKSEDSAVYFCARSGFPLTTVPLDYWGQGTTLTVSS
VL: DVQITQSPSYLAASPGETITINCRASKSISKYLAWYQEKPGKTNKLLIYSGSTLQSGIPSRFSGSGSGTDFTLTISSLEPEDFAMYYCQQHNEYPFTFGSGTKLEIK
notes: Mouse-derived hybridoma antibody; also called mouse-derived antibody 1
- binding result [1]: binds
- OD (mouse CEACAM5): 0.16 OD
- EC50 (read off the curve) [2]: ~0.04 µg/mL
- binding result [3]: binds

B2: NEO-201 antibody (msIgG2a subtype) (antibody, V domains shown)
VH: QVQLVQSGAEVKKPGASVKVSCKASGYTFTDYAMHWVRQAPGQRLEWMGLISTYSGDTKYNQNFQGRVTMTVDKSASTAYMELSSLRSEDTAVYYCARGDYSGSRYWFAYWGQGTLVTVSS
VL: DIQMTQSPSSLSASVGDRVTITCQASENIYGALNWYQRKPGKSPKLLIYGASNLATGMPSRFSGSGSGTDYTFTISSLQPEDIATYYCQQVLSSPYTFGGGTKLEIKR
- EC50 (read off the curve) [4]: ~2 nM
- EC50 (read off the curve) [5]: ~3 nM
- EC50 (read off the curve) [6]: ~3 nM
- Kd [7]: 5.05 nM
- EC50 (read off the curve) [8]: ~0.004 µg/mL
- EC50 (read off the curve) [9]: ~0.6 µg/mL
- EC50 (read off the curve) [2]: ~0.004 µg/mL
